# B1: AM22 antibody (antibody, V domains shown)
# VH: QVQLVQSGAEVKKPGATVKVSCKISGHTLIKLSIHWVRQAPGKGLEWMGGYEGEVDEIFYAQKFQHRLTVIADTATDTVYMELGRLTSDDTAVYFCGTLGVTVTEAGLGIDDYWGQGTLVTVSS
# VL: EIVLTQSPGTLSLSPGERATLSCRASQIVSRNHLAWYQQKPGQAPRLLIFGASSRATGIPVRFSGSGSGTDFTLTINGLAPEDFAVYYCLSSDSSIFTFGPGTKVDFKR
# Target: RSV F glycoprotein as expressed by RSV (on RSV-infected HEp-2 cells / on virus) (RSV (strain  for this assay), UniProt P03420 26-109; P03420 137-574)
# Assay: cell-based or functional assay
# Chain of RSV F glycoprotein as expressed by RSV (on RSV-infected HEp-2 cells / on virus) (P03420 26-109, chain 1 of 2): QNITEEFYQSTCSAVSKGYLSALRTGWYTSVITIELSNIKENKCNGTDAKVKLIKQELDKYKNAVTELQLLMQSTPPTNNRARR
# Chain of RSV F glycoprotein as expressed by RSV (on RSV-infected HEp-2 cells / on virus) (P03420 137-574, chain 2 of 2): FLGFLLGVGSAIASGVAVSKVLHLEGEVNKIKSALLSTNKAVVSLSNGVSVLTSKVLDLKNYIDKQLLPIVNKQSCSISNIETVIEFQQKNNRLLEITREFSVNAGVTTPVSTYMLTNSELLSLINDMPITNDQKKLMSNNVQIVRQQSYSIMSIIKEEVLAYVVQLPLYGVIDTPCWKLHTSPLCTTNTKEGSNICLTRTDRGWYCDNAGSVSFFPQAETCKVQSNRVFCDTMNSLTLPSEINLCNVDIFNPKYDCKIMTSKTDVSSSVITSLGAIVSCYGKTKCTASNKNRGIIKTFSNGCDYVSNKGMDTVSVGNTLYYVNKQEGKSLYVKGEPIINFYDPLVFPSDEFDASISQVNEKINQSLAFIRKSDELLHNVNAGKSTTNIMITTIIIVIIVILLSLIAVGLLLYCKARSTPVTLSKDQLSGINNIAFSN
binder,measurement,value
B1,"RSV neutralization (flow cytometry, RSV-GFP on HEp-2 cells), potency relative to palivizumab",~50 fold
